# Laboratory results from US5869641.
# pKd: −log10 of the molar value.
# Target: CD4 (extracellular domain, aa 1-370) (Homo sapiens) (UniProt P01730)
# Assay: flow
# Conditions: 2'-F on all C and U; +-0.08; multimeric SA-PE complex, 3.2 RNA per SA-PE; L200-CD4 beads, PBS, 2 mM MgCl2, BSA, room temp
sequence,measurement,value
GGGAGACAAGAAUAAACGCUCAANNNNNNNNNNNNNNNNNNNNNNNNNNNNNNNNNNNNNNNNUUCGACAGGAGGCUCACAACAGGC [15th round enriched RNA pool],pKd,8.82
